Each block holds one binder with its values, some of them ahead of it. No end group written: not given here.
Tests used:
[1] = target: FGFR on embryonic rat hippocampal neurons (rat); test: cell-based or functional assay
[2] = target: T1, combined FGFR1 Ig modules 2, 3 (mouse, UniProt P16092 141-365); test: SPR (BIAcoreX), FGFR Ig modules 2, 3 immobilized on CM5
T1 construct: Expressed in Drosophila S2 cells; immobilized on CM5 chip by amine coupling in the SPR experiments; also called FGFR Ig modules 2, 3; FGFR modules 2, 3
T1 sequence: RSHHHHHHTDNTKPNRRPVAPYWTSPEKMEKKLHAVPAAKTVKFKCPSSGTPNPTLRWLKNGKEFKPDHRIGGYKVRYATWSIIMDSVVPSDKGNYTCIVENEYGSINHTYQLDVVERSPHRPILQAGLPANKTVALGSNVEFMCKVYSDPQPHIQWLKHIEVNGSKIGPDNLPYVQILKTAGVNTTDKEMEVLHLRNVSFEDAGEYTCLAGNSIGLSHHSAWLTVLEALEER

[3] = target: T1, combined FGFR1 Ig modules 2, 3; test: SPR, FGFR Ig modules 2, 3 immobilized
[4] = target: T1, combined FGFR1 Ig modules 2, 3; test: SPR, apparent Kd, FGFR Ig modules 2, 3 immobilized

B2: FG loop peptide in which Y74, K83 and K85 were substituted with alanine (peptide)
peptide: EVAVVAENQQGASAA
neurite outgrowth from hippocampal neurons, stimulatory effect relative to the non-mutated peptide [1]: ~60%

B4: combined NCAM F3 modules 1, 2 (other, rat)
chain: AGHHHHHHQADTPSSPSIDRVEPYSSTAQVQFDEPEATGGVPILKYKAEWKSLGEEAWHSKWYDAKEANMEGIVTIMGLKPETRYAVRLAALNGKGLGEISAATEFKTQPVREPSAPKLEGQMGEDGNSIKVNLIKQDDGGSPIRHYLVKYRALASEWKPEIRLPSGSDHVMLKSLDWNAEYEVYVVAENQQGKSKAAHFVFRTSAQ
notes: range 507-705; Recombinant, expressed in P. pastoris KM71; also called double module protein
Kd [2]: 9.97 µM | koff [2]: 0.00556 s⁻¹ | kon [2]: 889 M⁻¹ s⁻¹

B5: dendrimeric FG loop peptide (SEQ ID NO: 1) (peptide)
peptide: EVYVVAENQQGKSKA
modifications: also: tetrameric dendrimer: four peptides joined through their C-termini to a three-lysine backbone
notes: Tetrameric dendrimer on a three-lysine backbone; also called dendrimeric version of the FG loop peptide
koff [3]: 0.00397 s⁻¹ | kon [3]: 2070 M⁻¹ s⁻¹ | Kd [4]: 2.58 µM

Further lines, results first:

neurite outgrowth from hippocampal neurons, stimulatory effect relative to the entire FG loop peptide [1]: ~50%
B1: truncated FG loop peptide, heptamer Ala77-K83 (peptide)
peptide: AENQQGK

neurite outgrowth from hippocampal neurons, stimulatory effect relative to the entire FG loop peptide [1]: ~50%
B3: truncated FG loop peptide, nonamer V78-S84 (as printed) (peptide)
peptide: VAENQQGKS

Reference: US20060281130A1 (ENKAM PHARMACEUTICALS A S, published 2006)
